# Patent US20190134153A1, “IMMUNOMODULATORY EFFECT OF INHALED KINASE INHIBITOR PEPTIDES IN LUNG” (MOERAE MATRIX, INC., priority 2017, published 2019)
# Legend:
# Experiment in all cases: Kinase Profiling Assay
# Settings in all cases: 100 μM
# [1] = target: CaMKIδ(h) (Homo sapiens, UniProt Q8IU85); type: biochemical
# [2] = target: T1, EphB3(h) (Homo sapiens, UniProt P54753); type: biochemical
# T1 sequence (P54753 34-998): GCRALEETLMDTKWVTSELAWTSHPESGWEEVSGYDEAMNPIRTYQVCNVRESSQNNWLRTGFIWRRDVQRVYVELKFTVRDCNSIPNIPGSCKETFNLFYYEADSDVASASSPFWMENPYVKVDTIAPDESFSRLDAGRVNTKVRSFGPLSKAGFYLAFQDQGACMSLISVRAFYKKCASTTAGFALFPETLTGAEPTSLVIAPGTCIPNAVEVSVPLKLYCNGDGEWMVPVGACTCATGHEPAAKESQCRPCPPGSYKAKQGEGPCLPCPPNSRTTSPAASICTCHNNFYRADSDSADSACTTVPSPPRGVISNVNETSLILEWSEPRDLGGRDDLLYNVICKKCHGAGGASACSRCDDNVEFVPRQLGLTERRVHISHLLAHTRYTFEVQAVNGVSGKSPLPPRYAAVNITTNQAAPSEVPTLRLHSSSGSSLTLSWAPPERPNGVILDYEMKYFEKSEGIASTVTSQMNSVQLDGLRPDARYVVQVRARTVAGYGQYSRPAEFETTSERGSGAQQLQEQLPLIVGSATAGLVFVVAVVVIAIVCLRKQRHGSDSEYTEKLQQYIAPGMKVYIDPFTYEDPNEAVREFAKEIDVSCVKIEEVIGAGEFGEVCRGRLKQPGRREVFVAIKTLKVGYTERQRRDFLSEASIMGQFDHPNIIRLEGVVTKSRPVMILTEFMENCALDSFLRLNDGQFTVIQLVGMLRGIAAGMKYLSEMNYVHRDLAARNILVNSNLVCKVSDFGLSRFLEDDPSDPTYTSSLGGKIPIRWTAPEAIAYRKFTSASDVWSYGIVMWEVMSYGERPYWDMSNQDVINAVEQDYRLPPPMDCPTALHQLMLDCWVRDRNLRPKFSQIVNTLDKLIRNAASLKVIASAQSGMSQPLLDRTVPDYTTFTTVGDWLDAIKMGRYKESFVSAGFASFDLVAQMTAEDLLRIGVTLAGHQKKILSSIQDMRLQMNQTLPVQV
# [3] = target: FGFR2(h) (Homo sapiens, UniProt P21802); type: biochemical
# [4] = target: Fyn(h) (Homo sapiens, UniProt P06241); type: biochemical
# Sequence of Fyn(h) (P06241 whole entry): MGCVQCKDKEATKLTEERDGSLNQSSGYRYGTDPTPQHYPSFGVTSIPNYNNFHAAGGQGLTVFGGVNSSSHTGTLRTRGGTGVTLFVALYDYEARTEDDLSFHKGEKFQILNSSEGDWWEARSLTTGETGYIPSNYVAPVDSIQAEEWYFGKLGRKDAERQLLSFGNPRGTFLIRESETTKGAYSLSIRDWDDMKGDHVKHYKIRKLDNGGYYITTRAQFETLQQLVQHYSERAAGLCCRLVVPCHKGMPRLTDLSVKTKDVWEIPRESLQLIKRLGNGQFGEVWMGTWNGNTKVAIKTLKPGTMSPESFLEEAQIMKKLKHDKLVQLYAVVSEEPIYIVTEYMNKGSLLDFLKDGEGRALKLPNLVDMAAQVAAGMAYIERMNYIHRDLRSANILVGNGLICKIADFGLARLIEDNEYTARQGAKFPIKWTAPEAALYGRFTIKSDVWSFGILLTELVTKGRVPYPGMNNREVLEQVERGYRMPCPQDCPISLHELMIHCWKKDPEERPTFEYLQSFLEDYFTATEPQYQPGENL
# [5] = target: JNK3(h) (Homo sapiens, UniProt P53779); type: biochemical
# Sequence of JNK3(h) (P53779 whole entry): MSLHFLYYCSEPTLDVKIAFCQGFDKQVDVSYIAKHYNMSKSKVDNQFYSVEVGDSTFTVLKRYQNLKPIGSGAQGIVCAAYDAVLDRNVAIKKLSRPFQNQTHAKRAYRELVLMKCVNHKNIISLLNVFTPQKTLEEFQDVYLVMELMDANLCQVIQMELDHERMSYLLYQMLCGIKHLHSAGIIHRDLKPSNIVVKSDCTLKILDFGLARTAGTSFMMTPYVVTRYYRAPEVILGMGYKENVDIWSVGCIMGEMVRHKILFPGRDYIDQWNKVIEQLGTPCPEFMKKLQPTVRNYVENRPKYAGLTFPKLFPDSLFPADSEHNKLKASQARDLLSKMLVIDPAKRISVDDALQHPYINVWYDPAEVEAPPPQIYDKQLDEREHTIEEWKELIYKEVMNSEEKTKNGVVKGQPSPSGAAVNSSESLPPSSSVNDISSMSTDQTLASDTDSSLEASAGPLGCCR
# [6] = target: KDR(h) (Homo sapiens, UniProt P35968); type: biochemical
# Sequence of KDR(h) (P35968 20-1356): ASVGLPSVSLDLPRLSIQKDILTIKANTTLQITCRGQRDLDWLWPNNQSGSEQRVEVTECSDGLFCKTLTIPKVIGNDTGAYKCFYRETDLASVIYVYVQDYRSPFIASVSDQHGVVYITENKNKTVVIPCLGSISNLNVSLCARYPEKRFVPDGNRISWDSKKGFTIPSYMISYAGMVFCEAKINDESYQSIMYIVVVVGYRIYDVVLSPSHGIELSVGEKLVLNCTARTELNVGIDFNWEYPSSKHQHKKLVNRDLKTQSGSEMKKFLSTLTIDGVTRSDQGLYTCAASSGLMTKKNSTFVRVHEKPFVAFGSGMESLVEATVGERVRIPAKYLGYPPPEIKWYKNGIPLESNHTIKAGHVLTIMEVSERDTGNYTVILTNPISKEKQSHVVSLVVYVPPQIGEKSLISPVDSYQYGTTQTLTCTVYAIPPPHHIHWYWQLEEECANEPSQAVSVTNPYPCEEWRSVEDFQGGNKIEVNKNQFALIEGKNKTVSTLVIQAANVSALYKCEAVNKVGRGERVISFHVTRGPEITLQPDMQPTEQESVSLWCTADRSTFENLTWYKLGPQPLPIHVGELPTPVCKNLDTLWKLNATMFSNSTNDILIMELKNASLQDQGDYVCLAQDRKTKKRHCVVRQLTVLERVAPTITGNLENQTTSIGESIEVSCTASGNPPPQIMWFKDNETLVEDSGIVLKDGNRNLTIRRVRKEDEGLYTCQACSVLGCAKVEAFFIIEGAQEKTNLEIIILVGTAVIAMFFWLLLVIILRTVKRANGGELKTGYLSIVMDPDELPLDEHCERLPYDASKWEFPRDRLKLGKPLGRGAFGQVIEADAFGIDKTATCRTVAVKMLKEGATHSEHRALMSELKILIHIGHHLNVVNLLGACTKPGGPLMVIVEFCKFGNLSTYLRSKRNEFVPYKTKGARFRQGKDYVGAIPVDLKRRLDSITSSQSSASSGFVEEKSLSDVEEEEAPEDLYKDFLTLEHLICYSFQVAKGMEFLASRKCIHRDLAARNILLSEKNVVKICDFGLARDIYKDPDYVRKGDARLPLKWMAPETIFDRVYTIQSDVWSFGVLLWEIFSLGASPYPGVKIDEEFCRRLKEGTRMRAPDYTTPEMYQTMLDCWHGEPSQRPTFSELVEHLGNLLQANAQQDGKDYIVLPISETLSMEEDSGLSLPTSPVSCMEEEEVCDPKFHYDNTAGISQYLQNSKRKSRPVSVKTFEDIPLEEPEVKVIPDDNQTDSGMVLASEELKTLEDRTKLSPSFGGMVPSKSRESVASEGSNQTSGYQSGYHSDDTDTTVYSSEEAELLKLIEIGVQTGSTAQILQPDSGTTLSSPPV
# [7] = tested on: MLCK(h); type: biochemical, human
# [8] = target: PKCη(h) (Homo sapiens, UniProt P24723); type: biochemical
# [9] = target: Ret (V804L)(h) (Homo sapiens, UniProt P07949, V804L); type: biochemical
# [10] = target: Tie2(h) (Homo sapiens, UniProt Q02763); type: biochemical
# [11] = target: T2, TSSK2(h) (Homo sapiens, UniProt Q96PF2); type: biochemical
# T2 sequence (Q96PF2 1-358): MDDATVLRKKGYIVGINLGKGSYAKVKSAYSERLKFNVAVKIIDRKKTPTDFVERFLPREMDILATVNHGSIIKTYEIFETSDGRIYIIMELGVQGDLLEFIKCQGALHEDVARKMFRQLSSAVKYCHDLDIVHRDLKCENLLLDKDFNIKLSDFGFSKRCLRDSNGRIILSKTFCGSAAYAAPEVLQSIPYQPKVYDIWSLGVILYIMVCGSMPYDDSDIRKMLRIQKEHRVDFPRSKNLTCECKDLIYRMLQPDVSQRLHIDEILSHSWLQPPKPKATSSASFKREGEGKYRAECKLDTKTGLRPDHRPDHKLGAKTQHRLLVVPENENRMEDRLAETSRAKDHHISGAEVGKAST
# [12] = target: Abl(h) (Homo sapiens, UniProt P00519); type: biochemical
# [13] = target: CDK3/cyclinE(h) (Homo sapiens, UniProt Q00526); type: biochemical
# Sequence of CDK3/cyclinE(h) (Q00526 whole entry): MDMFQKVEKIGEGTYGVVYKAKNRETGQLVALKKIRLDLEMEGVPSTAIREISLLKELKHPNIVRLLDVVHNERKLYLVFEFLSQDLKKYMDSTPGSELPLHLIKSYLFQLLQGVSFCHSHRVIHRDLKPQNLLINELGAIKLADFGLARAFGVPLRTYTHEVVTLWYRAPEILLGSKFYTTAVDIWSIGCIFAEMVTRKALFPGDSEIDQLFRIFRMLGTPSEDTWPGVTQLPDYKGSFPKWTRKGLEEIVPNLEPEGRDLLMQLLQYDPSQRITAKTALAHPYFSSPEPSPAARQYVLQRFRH
# Sequence of CDK3/cyclinE(h) (P24864 whole entry partner): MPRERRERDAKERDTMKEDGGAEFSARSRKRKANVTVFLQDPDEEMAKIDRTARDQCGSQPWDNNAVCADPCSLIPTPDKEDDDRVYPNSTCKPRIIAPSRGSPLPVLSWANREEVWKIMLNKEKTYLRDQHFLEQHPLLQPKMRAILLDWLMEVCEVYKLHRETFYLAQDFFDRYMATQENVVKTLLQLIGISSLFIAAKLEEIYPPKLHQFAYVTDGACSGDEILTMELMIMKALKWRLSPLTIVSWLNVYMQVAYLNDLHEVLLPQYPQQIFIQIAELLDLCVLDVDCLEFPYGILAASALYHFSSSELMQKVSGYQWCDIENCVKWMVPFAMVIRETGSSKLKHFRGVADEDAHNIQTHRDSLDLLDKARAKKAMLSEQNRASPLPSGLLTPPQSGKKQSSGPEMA
# [14] = target: eEF-2K(h) (Homo sapiens, UniProt O00418); type: biochemical
# [15] = target: Flt3(D835Y)(h) (Homo sapiens, UniProt P36888, D835Y); type: biochemical
# [16] = target: MAPK2(h) (Homo sapiens, UniProt P28482); type: biochemical
# Sequence of MAPK2(h) (P28482 whole entry): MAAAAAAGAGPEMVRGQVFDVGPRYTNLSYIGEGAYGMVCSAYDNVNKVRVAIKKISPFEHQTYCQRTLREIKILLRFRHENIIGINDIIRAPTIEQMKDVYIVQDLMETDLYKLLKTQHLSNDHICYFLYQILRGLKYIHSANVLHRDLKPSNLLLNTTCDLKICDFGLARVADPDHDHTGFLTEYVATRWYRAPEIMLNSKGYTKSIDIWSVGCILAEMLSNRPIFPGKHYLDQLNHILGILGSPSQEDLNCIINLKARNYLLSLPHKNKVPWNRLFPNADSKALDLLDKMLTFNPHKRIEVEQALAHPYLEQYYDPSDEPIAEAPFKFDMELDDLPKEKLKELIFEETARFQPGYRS
# [17] = target: Ret(V804M)(h) (Homo sapiens, UniProt P07949, V804M); type: biochemical
# [18] = target: Rsk3(h) (Homo sapiens, UniProt Q15349); type: biochemical
# Sequence of Rsk3(h) (Q15349 whole entry): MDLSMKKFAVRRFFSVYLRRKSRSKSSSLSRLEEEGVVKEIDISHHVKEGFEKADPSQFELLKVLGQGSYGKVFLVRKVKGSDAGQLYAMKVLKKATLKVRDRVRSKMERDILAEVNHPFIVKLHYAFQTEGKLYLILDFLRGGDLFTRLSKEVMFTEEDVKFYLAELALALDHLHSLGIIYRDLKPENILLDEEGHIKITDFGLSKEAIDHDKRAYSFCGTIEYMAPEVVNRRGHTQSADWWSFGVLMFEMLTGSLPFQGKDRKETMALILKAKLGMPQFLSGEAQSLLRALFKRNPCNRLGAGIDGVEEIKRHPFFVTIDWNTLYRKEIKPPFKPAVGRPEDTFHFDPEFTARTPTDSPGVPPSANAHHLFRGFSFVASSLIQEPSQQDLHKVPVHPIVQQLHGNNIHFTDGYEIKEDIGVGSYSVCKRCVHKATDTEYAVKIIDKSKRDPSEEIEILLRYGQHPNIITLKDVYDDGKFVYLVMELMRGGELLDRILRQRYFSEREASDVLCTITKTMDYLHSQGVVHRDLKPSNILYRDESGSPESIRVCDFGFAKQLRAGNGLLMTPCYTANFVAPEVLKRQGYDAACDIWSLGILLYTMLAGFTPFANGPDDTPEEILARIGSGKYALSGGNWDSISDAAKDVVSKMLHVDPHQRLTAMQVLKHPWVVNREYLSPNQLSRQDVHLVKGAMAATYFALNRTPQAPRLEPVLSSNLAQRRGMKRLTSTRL
# [19] = target: T3, SAPK4(h) (Homo sapiens, UniProt O15264); type: biochemical
# T3 sequence (O15264 1-365): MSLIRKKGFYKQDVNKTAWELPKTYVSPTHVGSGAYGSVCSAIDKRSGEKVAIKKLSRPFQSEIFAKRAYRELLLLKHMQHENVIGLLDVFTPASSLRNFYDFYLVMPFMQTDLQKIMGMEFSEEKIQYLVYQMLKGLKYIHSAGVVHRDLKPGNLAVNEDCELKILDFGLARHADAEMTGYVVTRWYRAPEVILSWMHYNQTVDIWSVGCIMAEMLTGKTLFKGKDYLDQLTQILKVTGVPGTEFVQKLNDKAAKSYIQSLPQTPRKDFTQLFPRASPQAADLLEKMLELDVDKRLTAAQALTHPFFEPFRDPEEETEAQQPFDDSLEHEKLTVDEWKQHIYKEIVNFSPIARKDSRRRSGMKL
# Sequence of CaMKIδ(h) (Q8IU85 whole entry): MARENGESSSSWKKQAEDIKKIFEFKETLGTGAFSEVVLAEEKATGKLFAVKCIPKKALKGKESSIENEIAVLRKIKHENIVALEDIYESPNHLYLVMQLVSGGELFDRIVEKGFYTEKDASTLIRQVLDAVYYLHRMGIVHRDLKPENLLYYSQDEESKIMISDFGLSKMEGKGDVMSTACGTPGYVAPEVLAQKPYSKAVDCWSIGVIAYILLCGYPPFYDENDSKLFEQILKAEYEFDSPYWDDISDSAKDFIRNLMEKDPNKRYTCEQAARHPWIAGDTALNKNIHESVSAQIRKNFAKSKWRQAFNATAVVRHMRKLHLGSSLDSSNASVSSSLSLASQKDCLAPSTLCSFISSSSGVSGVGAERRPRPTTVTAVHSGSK
Sequence,% activity [1],% activity [2],% activity [3],% activity [4],% activity [5],% activity [6],% activity [7],% activity [8],% activity [9],% activity [10],% activity [11],% activity [12],% activity [13],% activity [14],% activity [15],% activity [16],% activity [17],% activity [18],% activity [19]
YARAAARQARAKALNRQLGVA [MMI-0200],47%,128%,73%,75%,90%,110%,103%,101%,100%,53%,91%,–,–,–,–,–,–,–,–
FAKLAARLYRKALARQLGVAA [MMI-0300],10%,62%,14%,74%,89%,101%,2%,–,79%,26%,98%,69%,94%,91%,80%,98%,95%,76%,96%
KAFAKLAARLYRKALARQLGVAA [MMI-0400],17%,47%,18%,54%,70%,94%,1%,98%,73%,21%,94%,84%,92%,43%,71%,93%,87%,71%,91%
HRRIKAWLKKIKALARQLGVAA [MMI-0500],0%,79%,12%,83%,171%,15%,0%,45%,20%,22%,92%,16%,8%,43%,65%,60%,36%,23%,48%
